Experimental data as given in article PMC5881488 (The Journal of Cell Biology, 2018).

B5: MBP-Ana2 NT-2PM (aa 1–317, T33E/S38D) (domain or fragment, Drosophila, UniProt Q9XZ31 1-317, looked up)
chain: MFVPETEDMLPRLAPRPSAAVPMGHTNEIIGPEVPEVDILFGQPPQDPQMQPQQPNHAHQESSPRAAPTFASWKKQMLPRVNFSPILATELGPRTAPSSNSPCSSKEYQVMPRDRNYASDAQQTTNHMNCNAGGYNAEPKQQAYQSRRLSSSSNADVLTICAGTQTDPFNPSPPRKSLPQVVYSDIDVSNLANKSDLAALVSLVESVRHEQQQLRNLCEMILEQQQRAKPEAISKASSTTGTQCDILTTNQAGRRLSPIMQDYIAEEEEPLPPPQARVIPQFPSPRPHPPIAQSTGYRANTPQAKRIPQLAKPNTEK

How the values were obtained:
[1] = biological target: MBP-Ana2 NT-2PM (aa 1–317, T33E/S38D) (Drosophila) (UniProt Q9XZ31); test: pull-down
[2] = biological target: T1, GST-Ana2, full length (Drosophila, UniProt Q9XZ31 1-420); test: pull-down
T1 sequence (looked up): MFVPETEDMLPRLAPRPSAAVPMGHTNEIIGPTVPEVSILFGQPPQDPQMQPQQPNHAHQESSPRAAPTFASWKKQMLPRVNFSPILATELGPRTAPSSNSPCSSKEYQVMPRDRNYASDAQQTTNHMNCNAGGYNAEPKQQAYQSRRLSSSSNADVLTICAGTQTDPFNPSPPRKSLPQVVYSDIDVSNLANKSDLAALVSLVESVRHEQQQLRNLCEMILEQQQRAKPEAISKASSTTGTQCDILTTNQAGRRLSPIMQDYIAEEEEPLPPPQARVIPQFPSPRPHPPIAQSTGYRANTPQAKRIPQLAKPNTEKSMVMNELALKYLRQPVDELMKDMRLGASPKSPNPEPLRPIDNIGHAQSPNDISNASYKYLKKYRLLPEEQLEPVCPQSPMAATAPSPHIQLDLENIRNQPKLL

[3] = biological target: Plk4-GFP lacking the putative CC and PB3 (Drosophila); test: co-IP
[4] = biological target: Plk4-GFP lacking PB3 (Drosophila); test: co-IP
[5] = biological target: B5; test: pull-down
[6] = biological target: the molecule itself; test: pull-down

For “His6-Ana2 CT-3PM (aa 318–420, S318/S370/S373 phosphomimetic) (from UniProt Q9XZ31 318-420) (domain or fragment)”, the fold of His6-Ana2 CT pulled down relative to WT NT with WT CT [1] was 3.5 fold.

B1: Plk4 1–317-FLAG-His6 (domain or fragment, Drosophila, UniProt O97143 1-317, looked up)
chain: MLSNRAFGETIEDYEVQHLLGKGGFATVYKARCLHTHQDVAIKMIDKKLIQGTGLTNRVRQEVEIHSRLKHPSVLQLYTFFQDANYVYLVLELAHNGELHRYMNHIARPFTETEAASILKQVVAGLLYLHSHNIMHRDISLSNLLLSREMHVKIADFGLATQLKRPDERHMTMCGTPNYISPEVVSRTSHGLPADVWSVGCMLYTLLVGRPPFETDAVQSTLNKVVMSEYIMPAHLSYEAQDLINKLLKKLPHERITLEAVLCHPFMLKCSNGGHSAPGALNVFSQSMESGDSGIITFASSDSRNSQQIRSVENSGP
B1: binds [2].

B2: V5-Ana2 (anastral spindle 2), full length, wild type (natural protein)
chain: MFVPETEDMLPRLAPRPSAAVPMGHTNEIIGPTVPEVSILFGQPPQDPQMQPQQPNHAHQESSPRAAPTFASWKKQMLPRVNFSPILATELGPRTAPSSNSPCSSKEYQVMPRDRNYASDAQQTTNHMNCNAGGYNAEPKQQAYQSRRLSSSSNADVLTICAGTQTDPFNPSPPRKSLPQVVYSDIDVSNLANKSDLAALVSLVESVRHEQQQLRNLCEMILEQQQRAKPEAISKASSTTGTQCDILTTNQAGRRLSPIMQDYIAEEEEPLPPPQARVIPQFPSPRPHPPIAQSTGYRANTPQAKRIPQLAKPNTEKSMVMNELALKYLRQPVDELMKDMRLGASPKSPNPEPLRPIDNIGHAQSPNDISNASYKYLKKYRLLPEEQLEPVCPQSPMAATAPSPHIQLDLENIRNQPKLL
Work on B2 yielded a further fold decrease of co-precipitated Ana2 relative to deletion of PB3 alone [3] of 2 fold and a fold decrease of co-precipitated Ana2 on deletion of PB3 [4] of 2 fold.

B3: His6-Ana2 CT (aa 318–420), wild type (domain or fragment, Drosophila, UniProt Q9XZ31 318-420, looked up)
chain: SMVMNELALKYLRQPVDELMKDMRLGASPKSPNPEPLRPIDNIGHAQSPNDISNASYKYLKKYRLLPEEQLEPVCPQSPMAATAPSPHIQLDLENIRNQPKLL
B3: binds [5].

B4: MBP-Ana2 NT (aa 1–317), wild type (domain or fragment, Drosophila, UniProt Q9XZ31 1-317, looked up)
chain: MFVPETEDMLPRLAPRPSAAVPMGHTNEIIGPTVPEVSILFGQPPQDPQMQPQQPNHAHQESSPRAAPTFASWKKQMLPRVNFSPILATELGPRTAPSSNSPCSSKEYQVMPRDRNYASDAQQTTNHMNCNAGGYNAEPKQQAYQSRRLSSSSNADVLTICAGTQTDPFNPSPPRKSLPQVVYSDIDVSNLANKSDLAALVSLVESVRHEQQQLRNLCEMILEQQQRAKPEAISKASSTTGTQCDILTTNQAGRRLSPIMQDYIAEEEEPLPPPQARVIPQFPSPRPHPPIAQSTGYRANTPQAKRIPQLAKPNTEK
B4: binds [6].

B5: binds [6].
